Experimental data: patent publication US7244826B1, “Internalizing ERB2 antibodies” (The Regents of the University of California, priority 1998, dated 2007)
“Also recorded” adds a separate entry of the source. Where two headings read alike, the source gives them in different places.

Columns and labels:
SK-OV-3 cells [1] = settings: in vitro; cited from earlier work
SKBR3 cells [2] = assay type: cell-based
SKBR3 cells [3] = assay type: cell-based; remark: listed apart in the source
tumor = settings: cited from earlier work
[4] = target: ErbB2 on cells (SKBR3, SK-OV-3, MCF7 tumor cell lines) (UniProt P04626); assay: cell-based or functional assay
[5] = target: ErbB2 on cells (SKBR3, SK-OV-3, MCF7 tumor cell lines) (UniProt P04626); assay: 5.0 × 10^11 phage on about 1.0 × 10^5 SKBR3 cells at 37° C.; surface bound phage eluted with low pH glycine, titered on E. coli TG1
[6] = target: ErbB2 on cells (SKBR3, SK-OV-3, MCF7 tumor cell lines) (UniProt P04626)
[7] = target: T1, ErbB2 (form in the assay not stated) (UniProt P04626 23-1255); assay: method and form of ErbB2 not stated
T1 construct: also called c-erbB2

MCF7 cells = assay: Staining of MCF7 cells by phage antibodies or native scFv; assay type: cell-based; settings: low ErbB2 expression
[8] = Gel filtration of native scFv; assay type: physicochemical
[9] = test system: normal breast cell line HST578; assay: Staining of normal breast cell line by phage antibodies or native scFv; assay type: cell-based
SKBR3 cells [10] = assay: Staining of SKBR3 cells by phage antibodies or native scFv; settings: high ErbB2 expression; for staining of SKBR3 cells by phage antibody: phage-displayed
SK-OV-3 cells [11] = assay: Staining of SK-OV-3 cells by native scFv; assay type: cell-based; settings: moderate ErbB2 expression
ErbB2 = ErbB2 (Homo sapiens, UniProt P04626); assay: Epitope mapping competition assay: inhibition of phage binding by soluble scFv
Description: Bound phages were detected with an anti-M13 biotinylated Ab and streptavidin-PE.
Neither of these phage were isolated when the same library was selected on recombinant ErbB2. […] This was confirmed using a competition assay (FIG. 2).

[12] = increasing concentrations of soluble scFv, bound phage by anti-M13 biotinylated Ab and streptavidin-PE, MFI

For “C6.5 diabody: dimeric scFv from C6.5 V-genes, linker between VH and VL shortened from 15 to 5 amino acids”, the “apparent affinity compared to C6.5 scFv” value (SK-OV-3 cells [1]) is given as “significantly higher”, the “cells that had internalized phage” value (SKBR3 cells [2]; 37° C.) is given as ~20% and the “increase of titer after cell lysis from the second glycine wash” value (SKBR3 cells [3]) is given as > 50 fold. For the same molecule, the “more phage bound to the cell surface than the anti-Botulinum phage” value (SKBR3 cells [3]) was 30 times, the “phage titer, 1st glycine wash” value (SKBR3 cells [3]) was 1.8 × 10^7 and the “phage titer, 2nd glycine wash” value (SKBR3 cells [3]) was 2.8 × 10^6. For the same molecule, the “phage titer, lysed cell fraction” value (SKBR3 cells [3]) was 1.7 × 10^7, the “recovery of phage from inside the cell, higher than for anti-Botulinum phage” value (SKBR3 cells [3]) was 200 fold and the “% ID/g tumor” value (tumor; at 24 hours, diabody study) was 6.5 % ID/g. For the same molecule, the “tumor:organ AUC ratios” value (tumor; retentions examined over 72 hours, cumulative AUC) was “greater than reported for other monovalent or divalent scFv molecules”.

C6.5 diabody phage showed a cells that had internalized phage (confocal microscopy, SKBR3 cells) [4] of 20%, a phage titer, Lysed cell fraction (internalized phage) [4] of 1.7e+07 and a titer of cell surface bound phage, 1st glycine wash [5] of 1.8e+07. It also gave a titer of cell surface bound phage, 2nd glycine wash [5] of 2.8e+06.

irrelevant anti-Botulinum phage (scFv) gave a phage titer, Lysed cell fraction (internalized phage) [4] of 600000, a titer of cell surface bound phage, 1st glycine wash [6] of 600000 and a titer of cell surface bound phage, 2nd glycine wash [6] of 100000.

For “C6.5 phage (anti-ErbB2 C6.5 scFv displayed on phage)”, the phage titer, Lysed cell fraction (internalized phage) [4] was 6.8e+07, the titer of cell surface bound phage, 1st glycine wash [5] was 1.2e+07 and the titer of cell surface bound phage, 2nd glycine wash [5] was 5.2e+06.

B1: F5 scFv (native purified soluble scFv) (scFv, not shown: small tags and cut ends)
scFv: QVQLVESGGGLVQPGGSLRLSCAASGFTFRSYAMSWVRQAPGKGLEWVSAISGRGDNTYYADSVKGRFTISRDNSKNTLYLQMNSLRAEDTAVYYCAKMTSNAFAFDYWGQGTLVTVSSGGGGSGGGGSGGGGSQSVLTQPPSVSGAPGQRVTISCTGSSSNIGAGYGVHWYQQLPGTAPKLLIYGNTNRPSGVPDRFSGFKSGTSASLAITGLQAEDEADYYCQFYDSSLSGWVFGGGTKLTVLG
notes: also called 3TF5; scFv-F5
Work on B1 yielded a Kd [7] of 320 nM.

B2: F5: internalizing human anti-c-erbB-2 scFv, SEQ ID NO: 1, ATCC plasmid deposit PTA-7843, also referred to as 3TF5 (protein)
scFv: B1 scFv
In the case of B2, the “staining of MCF7 cells by native purified scFv” value (MCF7 cells; native purified scFv) is reported as “minimal staining”, the “staining of MCF7 cells by phage antibody” value (MCF7 cells; phage-displayed) is reported as “much more intensely then C6.5” and the “oligomeric state by gel filtration” value [8] is reported as “only as a monomer with no appreciable dimerization or aggregation”. For the same molecule, the “internalization of native purified scFv by SKBR3 cells (in words)” value (SKBR3 cells [2]) was “efficiently internalized; also recorded: internalized faster than C6.5”, the “internalization of phage by SKBR3 cells at 4° C. (in words)” value (SKBR3 cells [2]) was “no internalization” and the “cells that had internalized phage” value (SKBR3 cells [2]; 37° C.) was “greater than 95%”. The “internalization of phage by SKBR3 cells (in words)” value (SKBR3 cells [2]; 37° C.) was “internalized”, the “staining of normal breast cell line HST578 by native purified scFv” value [9] was “do not stain” and the “staining of SKBR3 cells by native purified scFv” value (SKBR3 cells [10]; native purified scFv) was “intensely stain”. The “staining of SKBR3 cells by phage antibody” value (SKBR3 cells [10]) was “intensely stain”, the “staining of SKBR3 cells by phage antibody” value (SKBR3 cells [10]; listed as 3TF5 phage) was “more intensely than C6.5 phage” and the “staining of SK-OV-3 cells by native purified scFv” value (SK-OV-3 cells [11]) was “intermediate staining”. For the same molecule, the “epitope of F5 and C1 relative to each other” value (ErbB2; competition assay) was “recognize the same epitope”, the “epitope relative to C6.5” value (ErbB2; competition assay) was “a different epitope than C6.5” and the “epitope relative to Genentech anti-ErbB2 antibody 4D5” value (ErbB2; competition assay) was “recognize a different epitope”. The “inhibition of binding of C6.5 phage by soluble scFv” value (ErbB2; [12]) was “not” and the “inhibition of binding of F5 or C1 phage by soluble scFv” value (ErbB2; [12]) was “inhibited”.
